Measurements published in the Human Domainome abundance scans (Beltran et al. 2025).
± gives the uncertainty stated by the source.

B1: Zinc finger homeobox protein 4, residues 2562 to 2617; numbered along this chain, Q86UP3 (parent)
chain: RLRTTITPEQLEILYEKYLLDSNPTRKMLDHIAREVGLKKRVVQVWFQNTRARERK

Variants of: B1
Assay: abundance fitness (aPCA) (normalised: wild type 0, dead -1); higher = more abundant; growth selection in yeast, the domain comes from the species named
Settings: Homo sapiens

Variant | abundance fitness
RLRTTITPEQLEILYEKYLLESNPTRKMLDHIAREVGLKKRVVQVWFQNTRARERK [D21E] | 0.078 ± 0.11
RLRTTITPEQLEILYEKYLLFSNPTRKMLDHIAREVGLKKRVVQVWFQNTRARERK [D21F] | -0.302 ± 0.16
RLRTTITPEQLEILYEKYLLGSNPTRKMLDHIAREVGLKKRVVQVWFQNTRARERK [D21G] | -0.433 ± 0.081
RLRTTITPEQLEILYEKYLLISNPTRKMLDHIAREVGLKKRVVQVWFQNTRARERK [D21I] | -0.406 ± 0.12
RLRTTITPEQLEILYEKYLLKSNPTRKMLDHIAREVGLKKRVVQVWFQNTRARERK [D21K] | -0.727 ± 0.097
RLRTTITPEQLEILYEKYLLLSNPTRKMLDHIAREVGLKKRVVQVWFQNTRARERK [D21L] | -0.474 ± 0.057
RLRTTITPEQLEILYEKYLLMSNPTRKMLDHIAREVGLKKRVVQVWFQNTRARERK [D21M] | -0.673 ± 0.21
RLRTTITPEQLEILYEKYLLNSNPTRKMLDHIAREVGLKKRVVQVWFQNTRARERK [D21N] | -0.188 ± 0.086
RLRTTITPEQLEILYEKYLLPSNPTRKMLDHIAREVGLKKRVVQVWFQNTRARERK [D21P] | -0.769 ± 0.3
RLRTTITPEQLEILYEKYLLQSNPTRKMLDHIAREVGLKKRVVQVWFQNTRARERK [D21Q] | -0.352 ± 0.1
RLRTTITPEQLEILYEKYLLRSNPTRKMLDHIAREVGLKKRVVQVWFQNTRARERK [D21R] | -0.796 ± 0.099
RLRTTITPEQLEILYEKYLLSSNPTRKMLDHIAREVGLKKRVVQVWFQNTRARERK [D21S] | -0.433 ± 0.064
RLRTTITPEQLEILYEKYLLTSNPTRKMLDHIAREVGLKKRVVQVWFQNTRARERK [D21T] | -0.458 ± 0.061
RLRTTITPEQLEILYEKYLLVSNPTRKMLDHIAREVGLKKRVVQVWFQNTRARERK [D21V] | -0.465 ± 0.075
RLRTTITPEQLEILYEKYLLWSNPTRKMLDHIAREVGLKKRVVQVWFQNTRARERK [D21W] | -0.505 ± 0.12
RLRTTITPEQLEILYEKYLLYSNPTRKMLDHIAREVGLKKRVVQVWFQNTRARERK [D21Y] | -0.5 ± 0.063
RLRTTITPEQLEILYEKYLLDCNPTRKMLDHIAREVGLKKRVVQVWFQNTRARERK [S22C] | -0.075 ± 0.13
RLRTTITPEQLEILYEKYLLDDNPTRKMLDHIAREVGLKKRVVQVWFQNTRARERK [S22D] | 0.035 ± 0.12
RLRTTITPEQLEILYEKYLLDENPTRKMLDHIAREVGLKKRVVQVWFQNTRARERK [S22E] | 0.248 ± 0.1
RLRTTITPEQLEILYEKYLLDFNPTRKMLDHIAREVGLKKRVVQVWFQNTRARERK [S22F] | -0.168 ± 0.057
RLRTTITPEQLEILYEKYLLDGNPTRKMLDHIAREVGLKKRVVQVWFQNTRARERK [S22G] | -0.059 ± 0.059
RLRTTITPEQLEILYEKYLLDHNPTRKMLDHIAREVGLKKRVVQVWFQNTRARERK [S22H] | -0.289 ± 0.079
RLRTTITPEQLEILYEKYLLDINPTRKMLDHIAREVGLKKRVVQVWFQNTRARERK [S22I] | -0.436 ± 0.16
RLRTTITPEQLEILYEKYLLDKNPTRKMLDHIAREVGLKKRVVQVWFQNTRARERK [S22K] | -0.305 ± 0.12

Variant | abundance fitness
RLRTTITPEQLEILYEKYLLDLNPTRKMLDHIAREVGLKKRVVQVWFQNTRARERK [S22L] | -0.56 ± 0.088
RLRTTITPEQLEILYEKYLLDMNPTRKMLDHIAREVGLKKRVVQVWFQNTRARERK [S22M] | -0.155 ± 0.12
RLRTTITPEQLEILYEKYLLDNNPTRKMLDHIAREVGLKKRVVQVWFQNTRARERK [S22N] | -0.429 ± 0.15
RLRTTITPEQLEILYEKYLLDPNPTRKMLDHIAREVGLKKRVVQVWFQNTRARERK [S22P] | -0.402 ± 0.14
RLRTTITPEQLEILYEKYLLDRNPTRKMLDHIAREVGLKKRVVQVWFQNTRARERK [S22R] | -0.358 ± 0.067
RLRTTITPEQLEILYEKYLLDTNPTRKMLDHIAREVGLKKRVVQVWFQNTRARERK [S22T] | -0.078 ± 0.059
RLRTTITPEQLEILYEKYLLDVNPTRKMLDHIAREVGLKKRVVQVWFQNTRARERK [S22V] | -0.403 ± 0.1
RLRTTITPEQLEILYEKYLLDWNPTRKMLDHIAREVGLKKRVVQVWFQNTRARERK [S22W] | -0.461 ± 0.072
RLRTTITPEQLEILYEKYLLDYNPTRKMLDHIAREVGLKKRVVQVWFQNTRARERK [S22Y] | -0.772 ± 0.18
RLRTTITPEQLEILYEKYLLDSAPTRKMLDHIAREVGLKKRVVQVWFQNTRARERK [N23A] | -0.064 ± 0.068
RLRTTITPEQLEILYEKYLLDSCPTRKMLDHIAREVGLKKRVVQVWFQNTRARERK [N23C] | -0.738 ± 0.2
RLRTTITPEQLEILYEKYLLDSDPTRKMLDHIAREVGLKKRVVQVWFQNTRARERK [N23D] | -0.039 ± 0.14
RLRTTITPEQLEILYEKYLLDSEPTRKMLDHIAREVGLKKRVVQVWFQNTRARERK [N23E] | -0.086 ± 0.11
RLRTTITPEQLEILYEKYLLDSFPTRKMLDHIAREVGLKKRVVQVWFQNTRARERK [N23F] | 0.301 ± 0.15
RLRTTITPEQLEILYEKYLLDSGPTRKMLDHIAREVGLKKRVVQVWFQNTRARERK [N23G] | -0.121 ± 0.072
RLRTTITPEQLEILYEKYLLDSHPTRKMLDHIAREVGLKKRVVQVWFQNTRARERK [N23H] | -0.302 ± 0.27
RLRTTITPEQLEILYEKYLLDSIPTRKMLDHIAREVGLKKRVVQVWFQNTRARERK [N23I] | -0.091 ± 0.15
RLRTTITPEQLEILYEKYLLDSKPTRKMLDHIAREVGLKKRVVQVWFQNTRARERK [N23K] | -0.054 ± 0.11
RLRTTITPEQLEILYEKYLLDSLPTRKMLDHIAREVGLKKRVVQVWFQNTRARERK [N23L] | -0.238 ± 0.065
RLRTTITPEQLEILYEKYLLDSMPTRKMLDHIAREVGLKKRVVQVWFQNTRARERK [N23M] | -0.105 ± 0.11
RLRTTITPEQLEILYEKYLLDSPPTRKMLDHIAREVGLKKRVVQVWFQNTRARERK [N23P] | -0.425 ± 0.18
RLRTTITPEQLEILYEKYLLDSQPTRKMLDHIAREVGLKKRVVQVWFQNTRARERK [N23Q] | 0.013 ± 0.063
RLRTTITPEQLEILYEKYLLDSRPTRKMLDHIAREVGLKKRVVQVWFQNTRARERK [N23R] | 0.017 ± 0.057
